In the supplement of paper PMC10567573 one finds protein stability index data, which are given here for 5 proteins.

The nature of the data set: protein stability index of a GFP-peptide fusion (GPS, HEK-293T) (PSI 1-6); higher = more stable. Particulars: c terminus: native.
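Further: lentivirally expressed fusion library, cells FACS-sorted into six equal-sized GFP/DsRed ratio bins, PSI computed from sequencing read fractions per bin weighted by bin number.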

B1: BEX2 addC (peptide)
chain: HSLRAVSTDPPHHDHHDEFCLMPC
Regarding B1, the protein stability index (parent: NP_116010.1) came to 3.48.

B2: SNF8 addC (peptide)
chain: LPALFTDLYSQEITAEEAREALPC
Take B2: the protein stability index (parent: NP_009172.2) came to 3.81.

B3: POLD2 addC (peptide)
chain: CQPISFSGFGAEDDDLGGLGLGPC
B3: the protein stability index (parent: NP_006221.1) was 2.27.

B4: PSMB5 addC (peptide)
chain: DGWIRVSSDNVADLHEKYSGSTPC
On to B4, for which the protein stability index (parent: NP_002788.1) was 2.89.

B5: TRPA1 addC (peptide)
chain: EQRNSRWNTVLRAVKAKTHHLEPC
B5: the protein stability index (parent: NP_015628.1) was found to be 4.32.
